Sequences and labels used below:
B1: KRT71 (parent)
chain: FGSRSLYSLGGVRSLNVASGSGKS
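Further: lentivirally expressed fusions sorted by FACS into six bins by GFP to DsRed ratio, PSI derived from sequencing read proportions per bin multiplied by bin number.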

Variants of B1 are the subject of this data set. As to the kind of experiment: protein stability index of a GFP-peptide fusion (GPS, HEK-293T) (PSI 1-6); higher = more stable. Particulars: c terminus: a fixed tail appended.
As to FGSRSLYSLGGQRSLNVASGSGKS [V12Q], the protein stability index turned out to be 2.11.

For the variant FGSRSLYSLGGERSLNVASGSGKS [V12E], the protein stability index is 2.3. The value for FGSRSLYSLGGIRSLNVASGSGKS [V12I] was 2.12; that for FGSRSLYSLGGARSLNVASGSGKS [V12A] was 1.81.

On to FGSRSLYSLGGNRSLNVASGSGKS [V12N], for which the protein stability index amounted to 2.28.

For the variant FGSRSLYSLGGRRSLNVASGSGKS [V12R], the protein stability index came to 2.37. The value for FGSRSLYSLGGPRSLNVASGSGKS [V12P] was 2.2. The value for FGSRSLYSLGGVRSLNVASGSGKK [S24K] was 2.22; that for FGSRSLYSLGGVRSLNVASGSGKV [S24V] was 1.26.

For FGSRSLYSLGGVRSLNVASGSGKQ [S24Q], the protein stability index turned out to be 1.55.

Consider FGSRSLYSLGGVRSLNVASGSGKG [S24G], for which the protein stability index was determined as 1.97. To FGSRSLYSLGGVRSLNVASGSGKL [S24L] belongs 1.76; to FGSRSLYSLGGVRSLNVASGSGKF [S24F], 1.41. The value for FGSRSLYSLGGVRSLNVASGSGKW [S24W] was 1.74; that for FGSRSLYSLGGVRSLNVASGSGKD [S24D] was 1.89; that for FMSRSLYSLGGVRSLNVASGSGKS [G2M] was 1.99. To FDSRSLYSLGGVRSLNVASGSGKS [G2D] belongs 3.02; to FKSRSLYSLGGVRSLNVASGSGKS [G2K], 3.75.

FESRSLYSLGGVRSLNVASGSGKS [G2E]: the protein stability index is 3.3. To FFSRSLYSLGGVRSLNVASGSGKS [G2F] belongs 2.33; to FISRSLYSLGGVRSLNVASGSGKS [G2I], 1.78; to FGSRSLVSLGGVRSLNVASGSGKS [Y7V], 2.83.

In the case of FGSRSLHSLGGVRSLNVASGSGKS [Y7H], the protein stability index came to 2.98. To FGSRSLTSLGGVRSLNVASGSGKS [Y7T] belongs 2.55; to FGSRSLASLGGVRSLNVASGSGKS [Y7A], 3.46. To FGSRSLESLGGVRSLNVASGSGKS [Y7E] belongs 4.17; to FGSRSLRSLGGVRSLNVASGSGKS [Y7R], 3.57; to FGCRSLYSLGGVRSLNVASGSGKS [S3C], 1.56.

For FGRRSLYSLGGVRSLNVASGSGKS [S3R], the protein stability index was 1.97. FGDRSLYSLGGVRSLNVASGSGKS [S3D]: the protein stability index stood at 1.43. To FGLRSLYSLGGVRSLNVASGSGKS [S3L] belongs 2.47; to FGNRSLYSLGGVRSLNVASGSGKS [S3N], 1.26. As for FGKRSLYSLGGVRSLNVASGSGKS [S3K], the protein stability index was determined as 1.78.

Turning to FGWRSLYSLGGVRSLNVASGSGKS [S3W], the protein stability index came out at 1.59. To FGMRSLYSLGGVRSLNVASGSGKS [S3M] belongs 2.21; to FGERSLYSLGGVRSLNVASGSGKS [S3E], 2.22.

Turning to FGSTSLYSLGGVRSLNVASGSGKS [R4T], the protein stability index was determined as 2.

Turning to FGSISLYSLGGVRSLNVASGSGKS [R4I], the protein stability index stood at 1.7. To FGSMSLYSLGGVRSLNVASGSGKS [R4M] belongs 1.88; to FGSYSLYSLGGVRSLNVASGSGKS [R4Y], 2.77. For the variant FGSLSLYSLGGVRSLNVASGSGKS [R4L], the protein stability index was determined as 1.75.

Regarding FGSSSLYSLGGVRSLNVASGSGKS [R4S], the protein stability index came out at 2.31. To FGSQSLYSLGGVRSLNVASGSGKS [R4Q] belongs 2.5.

For the variant FGSNSLYSLGGVRSLNVASGSGKS [R4N], the protein stability index is 2.12. The value for FGSRSIYSLGGVRSLNVASGSGKS [L6I] was 2.29. The value for FGSRSTYSLGGVRSLNVASGSGKS [L6T] was 3.13; that for FGSRSEYSLGGVRSLNVASGSGKS [L6E] was 3.14; that for FGSRSYYSLGGVRSLNVASGSGKS [L6Y] was 1.48. As for FGSRSQYSLGGVRSLNVASGSGKS [L6Q], the protein stability index was determined as 2.62. FGSRSVYSLGGVRSLNVASGSGKS [L6V]: the protein stability index came out at 1.62. The value for FGSRSSYSLGGVRSLNVASGSGKS [L6S] was 2.13. Turning to FGSRSLYSLGGVLSLNVASGSGKS [R13L], the protein stability index was 2.27. The value for FGSRSLYSLGGVDSLNVASGSGKS [R13D] was 2.06; that for FGSRSLYSLGGVESLNVASGSGKS [R13E] was 1.86. The value for FGSRSLYSLGGVNSLNVASGSGKS [R13N] was 1.87; that for FGSRSLYSLGGVSSLNVASGSGKS [R13S] was 2.48.

As to FGSRSLYSLGGVTSLNVASGSGKS [R13T], the protein stability index turned out to be 1.28. As to FGSRSLYSLGGVISLNVASGSGKS [R13I], the protein stability index was 1.93. The value for FGSRSLYSAGGVRSLNVASGSGKS [L9A] was 2.5.

Regarding FGSRSLYSGGGVRSLNVASGSGKS [L9G], the protein stability index came to 2.66. To FGSRSLYSKGGVRSLNVASGSGKS [L9K] belongs 2.27; to FGSRSLYSNGGVRSLNVASGSGKS [L9N], 2.51; to FGSRSLYSMGGVRSLNVASGSGKS [L9M], 1.83. The value for FGSRSLYSPGGVRSLNVASGSGKS [L9P] was 2.6; that for FGSRSLYSLGGVRSLNVASYSGKS [G20Y] was 1.87. The value for FGSRSLYSLGGVRSLNVASCSGKS [G20C] was 1.54; that for FGSRSLYSLGGVRSLNVASPSGKS [G20P] was 2; that for FGSRSLYSLGGVRSLNVASRSGKS [G20R] was 1.97.

On to FGSRSLYSLGGVRSLNVASDSGKS [G20D], for which the protein stability index worked out at 2.18.

As to FGSRSLYSLGGVRSLNVASSSGKS [G20S], the protein stability index was 1.87. The value for FGSRSLYSLGGVRSLNVASLSGKS [G20L] was 1.55; that for FGSRSLYSLGGVRSLNVASWSGKS [G20W] was 1.82; that for FGSRSLYSLGGVRSLNVASVSGKS [G20V] was 1.92.

For FGSRYLYSLGGVRSLNVASGSGKS [S5Y], the protein stability index worked out at 1.36. To FGSRNLYSLGGVRSLNVASGSGKS [S5N] belongs 1.99; to FGSRWLYSLGGVRSLNVASGSGKS [S5W], 2.33.

FGSRHLYSLGGVRSLNVASGSGKS [S5H]: the protein stability index is 2.24.

FGSRCLYSLGGVRSLNVASGSGKS [S5C]: the protein stability index came out at 1.5. To FGSRELYSLGGVRSLNVASGSGKS [S5E] belongs 2.77; to FGSRRLYSLGGVRSLNVASGSGKS [S5R], 2.77; to FGSRILYSLGGVRSLNVASGSGKS [S5I], 2.19. To FGSRKLYSLGGVRSLNVASGSGKS [S5K] belongs 2.65; to FGSRSLYSLGGVRSLNVAIGSGKS [S19I], 1.44; to FGSRSLYSLGGVRSLNVAWGSGKS [S19W], 2.85. To FGSRSLYSLGGVRSLNVAMGSGKS [S19M] belongs 1.88. With FGSRSLYSLGGVRSLNVATGSGKS [S19T], the protein stability index is 2.06.

As to FGSRSLYSLGGVRSLNVADGSGKS [S19D], the protein stability index was found to be 1.89. To FGSRSLYSLGGVRSLNVAPGSGKS [S19P] belongs 1.8; to FGSRSLYSLGGVRSLNVAHGSGKS [S19H], 1.53; to FGSRSLYSLGGVRSLNVSSGSGKS [A18S], 2.65. To FGSRSLYSLGGVRSLNVESGSGKS [A18E] belongs 2.11; to FGSRSLYSLGGVRSLNVTSGSGKS [A18T], 1.62. With FGSRSLYSLGGVRSLNVWSGSGKS [A18W], the protein stability index came to 2.87. Consider FGSRSLYSLGGVRSLNVMSGSGKS [A18M], for which the protein stability index worked out at 2.95.

Values taken from the supplement of paper PMC10567573.
